Results as given in paper PMC13132547.

Tests used:
Test in all cases: cryo-EM structure
[1] = target: StrepII-tagged Wu1 S (soluble SARS-CoV-2 Wuhan-Hu-1 spike, 6P version) (SARS-CoV-2) (UniProt P0DTC2)
[2] = target: D7324-tagged Delta S (soluble SARS-CoV-2 Delta spike, 6P version) (SARS-CoV-2) (UniProt P0DTC2)
[3] = target: His-tagged BA.1 S (soluble SARS-CoV-2 Omicron BA.1 spike, 6P version) (SARS-CoV-2) (UniProt P0DTC2)

Question: Which stoichiometry N [1] does the source give for “StrepII-tagged Wu1 S (soluble SARS-CoV-2 Wuhan-Hu-1 spike, 6P version) (from UniProt P0DTC2 14-1273) (natural protein)” here?
Answer: 3

Question: Which stoichiometry N [2] does the source give for “D7324-tagged Delta S (soluble SARS-CoV-2 Delta spike, 6P version) (from UniProt P0DTC2 14-1273) (natural protein)” here?
Answer: 3

Question: With “His-tagged BA.1 S (soluble SARS-CoV-2 Omicron BA.1 spike, 6P version) (from UniProt P0DTC2 14-1273) (natural protein)” as the substance, how does the stoichiometry N [3] read?
Answer: 3
